Patent publication US20220204610A1, “PROTEIN BINDERS FOR IRHOM2” (NEW YORK SOCIETY FOR THE RELIEF OF THE RUPTURED AND …, priority 2019, published 2022)

Legend:
human iRhom2 [1] = assay: Peptide binding ELISA, target region determination (Example 9); conditions: antibody 3 μg/ml, normalized to IgM isotype control
Method: (§1) Next, peptide binding ELISA analyses were performed to verify whether the purified antibody 4H8-E3 of the invention recognizes any of the peptides that were administered to those animals the hybridoma clone 4H8 was derived from, thereby shedding light on the target region being recognized by the antibody 4H8-E3 of the invention.
(§2) In brief, on day 1, Nunc black MaxiSorp® 96-well plates (Thermo Fisher Scientific, USA) were coated overnight with 100 μl per well of single biotinylated peptides 1 to 11 as well as mixes of peptides 1 to 4 (Mix A), 5 to 7 (Mix B), and 8 to 11 (Mix C) at 10 μg/ml TBS each (thus, the final concentration of each peptide in mixes 1 to 4 and 8 to 11 was 2.5 μg/ml versus 3.3 μg/ml in mix 5 to 7) at 4° C. On day 2, peptide solutions were removed and MaxiSorp® plates were blocked with 300 μl per well of Pierce protein-free (TBS) blocking buffer (Thermo Fisher Scientific, USA) at room temperature for 1.5 hours. The blocking buffer was then removed and plates were washed 4 times with 350 μl per well of TBS-T (Carl Roth, Germany) on a 96-head plate washer (Tecan Group, Switzerland). Afterwards, 100 μl per well of TBS as blank control, mouse anti-biotin antibody (clone BN-34, Sigma-Aldrich, USA) at 0.3 μg/ml TBS as coating control, the purified antibody 4H8-E3 of the invention at 3 μg/ml TBS, and mouse IgM antibody (clone MOPC 104E, Sigma-Aldrich, USA) as isotype control to the purified antibody 4H8-E3 of the invention at 3 μg/ml TBS were added to wells pre-coated with single peptides 1 to 11 or respective mixes and incubated at room temperature for 4 hours. Subsequently, the plates were washed 4 times with 350 μl per well of TBS-T (Carl Roth, Germany) on a 96-head plate washer (Tecan Group, Switzerland) again and, protected from direct light, were incubated with 100 μl per well of AP-conjugated goat anti mouse IgG/IgG/IgM F(ab′)2 fragment (Sigma-Aldrich, USA) diluted 1:2,000 in TBS for 1 hour at room temperature. Following another round of 4 washing steps with 350 μl per well of TBS-T (Carl Roth, Germany) on a 96-head plate washer (Tecan Group, Switzerland) and careful removal of all buffer traces after the fourth cycle, 100 μl of AttoPhos substrate solution (Promega, USA) were added for incubation in the dark and at room temperature for 1 hour. Using an infinite M1000 PRO (Tecan Group, Switzerland) microplate reader, the fluorescence of each well was collected at an excitation wavelength of 435 nm and an emission wavelength of 555 nm.

human iRhom2 [2] = molecular target: T1, human iRhom2 (Homo sapiens, UniProt Q6PJF5); assay: as above; conditions: antibody 3 μg/ml; peptide coated at 10 μg/ml; normalized to IgM isotype control
T1 construct: made in house; host or cells: chemical synthesis (Fmoc solid phase peptide synthesis), no expression host
T1 sequence (Q6PJF5 431-459): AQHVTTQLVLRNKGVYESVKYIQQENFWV
Method: as §1, §2

[3] = peptides coated individually or as mix

B1: 4H8-E3: Mouse IgM monoclonal antibody against the human iRhom2 juxtamembrane domain adjacent to TMD1; HC VD SEQ ID NO 33, LC VD SEQ ID NO 40 (antibody, V domains shown)
VH: EVQLQQSGPELVKPGASVKISCKASGYTFTDYYMNWVKQSHGKSLEWIGDINPNNGGTSYNQKFKGKATLTVDKSSNTAYMEFRSLTSEDSAVYYCARRGYYGVDYWGQGTTLTVSS
VL: NIVMTQSPKSMSMSVGERVTLNCKASENVGTYVSWYQQKPEQSPKLLIFGASNRYTGVPDRFIGSGFATDFTLTISSVQAEDLADYHCGQSYSYPYTFGGGTKLEIK
modifications: IgM constant regions; antibody sequence
- binding to Mix A consisting of peptides 1, 2, 3 and 4 (human iRhom2 [1]; biotinylated peptides coated at 10 μg/ml): strong binding
- binding to peptides 5, 6 and 7 (large extracellular loop) (human iRhom2 [1]; [3]): no binding
- binding to peptides 8, 9, 10 and 11 (C-terminal tail of human iRhom2) (human iRhom2 [1]; [3]): no binding
- binding to single peptide 3 (amino acids 431 to 459 of human iRhom2 juxtamembrane domain) (human iRhom2 [2]): strong binding
